T1: PIRB (UniProt P97484 25-642, limits assumed)
T1 sequence (looked up): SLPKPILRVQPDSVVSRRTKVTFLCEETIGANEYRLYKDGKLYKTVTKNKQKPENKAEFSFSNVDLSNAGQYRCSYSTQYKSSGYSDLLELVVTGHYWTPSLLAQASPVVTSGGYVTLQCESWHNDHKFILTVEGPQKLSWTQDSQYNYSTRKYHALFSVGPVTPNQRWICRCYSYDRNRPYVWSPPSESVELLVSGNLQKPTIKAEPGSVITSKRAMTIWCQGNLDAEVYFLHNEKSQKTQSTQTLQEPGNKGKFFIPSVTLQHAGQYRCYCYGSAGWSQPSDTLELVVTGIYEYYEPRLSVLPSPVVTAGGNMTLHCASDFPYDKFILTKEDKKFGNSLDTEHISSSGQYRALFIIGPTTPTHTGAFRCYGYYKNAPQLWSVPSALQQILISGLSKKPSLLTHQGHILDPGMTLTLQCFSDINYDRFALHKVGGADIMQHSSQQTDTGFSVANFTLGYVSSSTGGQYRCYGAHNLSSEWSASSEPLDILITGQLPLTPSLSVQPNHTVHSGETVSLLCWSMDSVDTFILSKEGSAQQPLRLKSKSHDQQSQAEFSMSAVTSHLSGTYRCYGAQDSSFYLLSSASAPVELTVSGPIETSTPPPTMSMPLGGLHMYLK


Legend:
recombinant ILT2 (human) [1] = molecular target: T2, recombinant ILT2 (human) (human, UniProt Q8NHL6 24-461); assay: binding ELISA, hILT2-Fc; positive control is GHI/75 by paragraph 244
T2 construct: also called recombinant ILT2 peptide; ILT2 protein

PIRB [2] = molecular target: T1, PIRB; assay: binding ELISA, column PIRB; negative control
recombinant ILT2 (human) [3] = molecular target: T2, recombinant ILT2 (human); assay: binding ELISA, hILT2-Fc; negative control
ILT6 [4] = molecular target: T3, ILT6 (UniProt Q8N6C8 24-439, limits assumed); assay: binding ELISA, column hILT6-His; negative control
LILRA1 [5] = molecular target: T4, LILRA1 (UniProt O75019 17-461, limits assumed); assay: binding ELISA, column hLILRA1-His; negative control
[6] = molecular target: T5, human ILT2 fused to mouse CD3 zeta chain, on BW cells (human; mouse); assay: cell-based or functional assay
recombinant ILT2 (human) [7] = molecular target: T2, recombinant ILT2 (human); assay: SPR (Biacore T200); KD relative to Control (chimeric 15G8)
Procedure: (§1) During grafting of the 15G8 CDRs, five heavy chains and four kappa light chains were generated. These chains were designated VH1-5 and Vk1-4. By combining each heavy chain with each light chain twenty different resultant antibodies are possible. All twenty possible antibodies were transiently expressed in HEK EBNA cells, and the supernatants were tested for binding to recombinant ILT2 peptide using a Biacore T200. The chimeric 15G8 antibody was used as control.

recombinant ILT2 (human) [8] = molecular target: T2, recombinant ILT2 (human); assay: SPR (Biacore T200), HEK EBNA supernatants on recombinant ILT2 peptide
Procedure: as §1

[9] = molecular target: T6, biotinylated recombinant human ILT2-Fc (human, UniProt Q8NHL6 24-458, limits assumed, conjugated with biotin (sites not given)); assay: flow cytometry blocking assay: ILT2-biotin binding to cells expressing HLA-G
T6 construct: Bought (Sino Biologics); the order of the parts is therefore uncertain; also called ILT2-biotin; biotinylated ILT2; not shown: Fc portion of human IgG1
Procedure: (§2) Flow cytometry blocking assay—Recombinant human ILT2 protein fused with the Fc portion of human IgG1 at the N terminal was conjugated with biotin (Innova bioscience). A total of 5×10⁵ A375/HLA-G1 cells were incubated in a volume of 100 μL in the presence of anti-ILT2 clone #1 or isotype matched control mAb and ILT2-Fc conjugated with biotin (10 μg/mL) for 30 minutes at room temperature. After several washing steps, streptavidin-PE was added at a final concentration of 0.2 μg/mL and incubated for 30 min on ice followed by FACS analysis.
(§3) The ability of the generated anti-ILT2 antibodies to block the interaction between HLA-G and ILT2 was tested using four different assays. First, a blocking flow cytometry assay was performed. HLA-G transfected A375 cells were incubated with biotinylated ILT2 in the presence of the antibodies of the present disclosure and a positive control antibody. The commercially available anti-ILT2 antibody GHI/75 (BioLegend, Cat. No. 333704) was used as the positive control. The binding of ILT2-biotin to the cells was determined using Streptavidin-PE by flow cytometry analysis (FIG. 8A). The percent of blocking was determined by normalizing to a negative control (ILT2 binding in the presence of control IgG). […] The percentage of blocking was calculated at various concentrations of antibody (FIG. 8C).

[10] = molecular target: T6, biotinylated recombinant human ILT2-Fc; assay: flow cytometry blocking assay: ILT2-biotin binding to cells expressing HLA-G [right panel]
Procedure: as §2, §3

[11] = molecular target: T6, biotinylated recombinant human ILT2-Fc; assay: B2M blocking ELISA: plate-bound recombinant human B2M-His, biotinylated ILT2-Fc at 20 µg/ml, titrated antibody, streptavidin-HRP; blocked ligand B2M
Procedure: To test whether 15G8 can block the interaction between ILT2 and B2M, a B2M blocking ELISA was performed. 96 well nickel plates were coated with recombinant human B2M-His tag (3 μg/ml; Sino Biologics, 11976-H08H) overnight. Biotinylated ILT2-Fc (20 μg/ml; Sino Biologics, 1614-H02H; Innova Biosciences, 370-0010) was added for 2 hours at 37° C., which allowed ILT2 binding to B2M, in the presence or absence of titrated BND-22 or an irrelevant antibody (anti human CD28, Biolegend, 302934) (Ab range of 80-0.1 μg/ml, ×3 fold). ILT2 binding to B2M was detected by HRP conjugated streptavidin (R&D Systems, DY998). The absorbance was measured using an ELISA Reader (Biotek Synergy-H1 plate reader).

PIRB [12] = molecular target: T1, PIRB; assay: binding ELISA, column PIRB
recombinant ILT2 (human) [13] = molecular target: T2, recombinant ILT2 (human); assay: binding ELISA, hILT2-Fc
ILT6 [14] = molecular target: T3, ILT6; assay: binding ELISA, column hILT6-His
LILRA1 [15] = molecular target: T4, LILRA1; assay: binding ELISA, column hLILRA1-His
[16] = molecular target: T6, biotinylated recombinant human ILT2-Fc; assay: flow cytometry blocking assay: ILT2-biotin binding to cells expressing HLA-G [left panel]
Procedure: as §2, §3

[17] = molecular target: T5, human ILT2 fused to mouse CD3 zeta …; assay: flow cytometry on BW cells transfected with human ILT2; fold above background (FAB) [left panel]

T2 sequence (Q8NHL6 24-461 limits assumed): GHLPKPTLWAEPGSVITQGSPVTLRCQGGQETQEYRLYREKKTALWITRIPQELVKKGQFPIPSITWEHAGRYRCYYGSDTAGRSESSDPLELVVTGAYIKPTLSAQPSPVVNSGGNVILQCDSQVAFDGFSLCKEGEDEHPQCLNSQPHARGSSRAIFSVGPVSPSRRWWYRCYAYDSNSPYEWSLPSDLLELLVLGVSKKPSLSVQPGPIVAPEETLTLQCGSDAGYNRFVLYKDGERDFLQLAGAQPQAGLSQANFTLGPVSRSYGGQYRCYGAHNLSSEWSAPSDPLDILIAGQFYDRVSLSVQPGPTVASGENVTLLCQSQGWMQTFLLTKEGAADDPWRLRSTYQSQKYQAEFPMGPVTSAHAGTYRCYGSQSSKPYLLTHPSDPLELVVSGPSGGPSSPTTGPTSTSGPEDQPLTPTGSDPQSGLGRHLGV
T4 sequence (O75019 17-461 limits assumed): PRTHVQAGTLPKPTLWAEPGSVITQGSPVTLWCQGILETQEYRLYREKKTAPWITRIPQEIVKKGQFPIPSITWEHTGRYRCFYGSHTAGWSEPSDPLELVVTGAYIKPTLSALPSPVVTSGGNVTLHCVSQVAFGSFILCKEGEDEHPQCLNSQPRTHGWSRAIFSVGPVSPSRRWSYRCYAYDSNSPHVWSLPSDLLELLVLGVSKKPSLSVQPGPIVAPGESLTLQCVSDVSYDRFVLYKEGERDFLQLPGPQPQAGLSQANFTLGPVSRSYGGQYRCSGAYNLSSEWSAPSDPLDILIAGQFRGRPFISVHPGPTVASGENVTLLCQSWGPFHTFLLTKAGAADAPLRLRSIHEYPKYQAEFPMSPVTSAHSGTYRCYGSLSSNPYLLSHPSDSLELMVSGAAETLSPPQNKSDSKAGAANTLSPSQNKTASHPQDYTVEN
T6 sequence (Q8NHL6 24-458 limits assumed): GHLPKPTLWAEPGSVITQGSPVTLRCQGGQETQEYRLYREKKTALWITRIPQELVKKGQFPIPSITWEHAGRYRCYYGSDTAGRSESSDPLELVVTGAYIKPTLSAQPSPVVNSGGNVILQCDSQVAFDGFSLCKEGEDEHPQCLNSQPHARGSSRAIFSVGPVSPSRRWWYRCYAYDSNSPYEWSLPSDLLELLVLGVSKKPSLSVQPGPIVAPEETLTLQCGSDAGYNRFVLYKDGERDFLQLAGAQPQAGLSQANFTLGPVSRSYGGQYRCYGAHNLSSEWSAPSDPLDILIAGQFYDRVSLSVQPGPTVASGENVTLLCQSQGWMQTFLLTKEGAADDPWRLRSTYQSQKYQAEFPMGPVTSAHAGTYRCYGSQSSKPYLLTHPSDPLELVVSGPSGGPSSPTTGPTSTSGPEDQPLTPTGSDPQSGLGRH
T3 sequence (Q8N6C8 24-439 limits assumed): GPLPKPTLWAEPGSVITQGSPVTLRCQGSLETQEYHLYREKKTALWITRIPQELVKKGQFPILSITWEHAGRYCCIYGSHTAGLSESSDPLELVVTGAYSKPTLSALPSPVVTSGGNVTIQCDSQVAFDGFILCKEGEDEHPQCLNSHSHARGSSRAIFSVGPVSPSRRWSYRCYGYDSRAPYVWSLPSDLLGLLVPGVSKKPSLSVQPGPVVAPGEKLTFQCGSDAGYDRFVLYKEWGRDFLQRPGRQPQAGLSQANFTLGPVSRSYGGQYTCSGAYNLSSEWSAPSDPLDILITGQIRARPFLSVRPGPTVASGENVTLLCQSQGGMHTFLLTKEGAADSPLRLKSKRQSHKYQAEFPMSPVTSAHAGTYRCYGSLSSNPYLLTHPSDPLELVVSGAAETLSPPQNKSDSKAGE
T5 sequence (P24161 other isoform, or with tags, fused parts or gaps limits assumed): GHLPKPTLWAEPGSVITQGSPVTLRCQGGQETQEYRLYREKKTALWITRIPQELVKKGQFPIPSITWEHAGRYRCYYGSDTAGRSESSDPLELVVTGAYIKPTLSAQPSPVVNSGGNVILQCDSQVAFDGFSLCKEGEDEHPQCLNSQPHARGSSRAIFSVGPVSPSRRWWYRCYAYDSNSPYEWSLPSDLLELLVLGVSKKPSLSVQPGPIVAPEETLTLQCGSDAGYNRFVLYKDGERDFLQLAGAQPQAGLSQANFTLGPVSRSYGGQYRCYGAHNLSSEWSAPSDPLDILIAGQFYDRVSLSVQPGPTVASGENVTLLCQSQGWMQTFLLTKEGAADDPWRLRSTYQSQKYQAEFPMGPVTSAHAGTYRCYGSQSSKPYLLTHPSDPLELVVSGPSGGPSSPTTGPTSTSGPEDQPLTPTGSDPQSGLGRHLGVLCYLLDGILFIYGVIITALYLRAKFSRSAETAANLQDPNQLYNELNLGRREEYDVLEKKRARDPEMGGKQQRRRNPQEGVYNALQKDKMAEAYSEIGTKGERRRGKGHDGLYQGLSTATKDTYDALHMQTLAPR

Row | Molecule | ELISA (OD) (PIRB [12]) | binding result (PIRB [12]) | ELISA (OD) (recombinant ILT2 (human) [13]) | ELISA (OD) (ILT6 [14]) | binding result (ILT6 [14]) | ELISA (OD) (LILRA1 [15]) | binding result (LILRA1 [15]) | other results
1 | GHI/75 (commercial mouse anti-human ILT2 antibody, BioLegend Cat. No. 333704) |  |  |  |  |  |  |  | ELISA (OD) (recombinant ILT2 (human) [1]): 2.45 OD
2 | Negative |  |  |  |  |  |  |  | ELISA (OD) (PIRB [2]): 0.0575 OD; ELISA (OD) (recombinant ILT2 (human) [3]): 0.05 OD; ELISA (OD) (ILT6 [4]): 0.071 OD; ELISA (OD) (LILRA1 [5]): 0.13 OD
3 | 15G8-13 (humanized 15G8, VH1/Vk3, alanine variant A108) (antibody, human IgG4 S228P, kappa, V domains shown, Humanized IgG4 (S228P, L235E), kappa; also called 15G8 humanized antibody; BND-22) VH: DVQLQGSGPGLVKPSETLSLTCSVTGYSITSGYYWNWIRQFPGKKLEWMGYISYDGSNNYNPSLKNRITISRDTSKNQFSLKLNSVTAADTATYYCAHGYSYYYAMDAWGQGTSVTVSS VL: DIQMTQSPSSLSASVGDRVTITCRTSQDISNYLNWYQQKPGKAVKLLISYTSRLHSGVPSRFSGSGSGTDYTLTISSLQPEDFATYYCQQGNTLPTFGQGTKLEIKR |  |  |  |  |  |  |  | IC50 (read off the curve) of Blocking (%) in the BW-ILT2 / A375-HLA-G mouse IL-2 reporter assay [6]: ~0.02 µg/mL; Relative KD (recombinant ILT2 (human) [7]): 0.55; Kd (recombinant ILT2 (human) [8]): 6.94 nM; koff (recombinant ILT2 (human) [8]): 0.00905 s⁻¹; kon (recombinant ILT2 (human) [8]): 1.3e+06 M⁻¹ s⁻¹; IC50 (read off the curve) [9]: ~0.3 µg/mL; IC50 (read off the curve) [10]: ~0.2 µg/mL; IC50 (read off the curve) [11]: ~8 µg/mL
4 | 17F2 (hybridoma-derived, murine) (antibody, V domains shown) VH: QVQLQQSDAELVKPGASVKISCKVSGYTFTDHTIHWMKQRPEQGLEWIGYIYPRDGSTKYNEKFKGKATLTADKSSSTAYMQLNSLTSEDSAVYFCARTWDYFDYWGQGTTLTVSS VL: DIVLTQSPASLAVSLGQRATISCRASESVDSYGNSFMHWYQQKPGQPPKLLIYRASNLESGIPARFSGSGSRTDFTLTINPVEADDVATYYCQQSNEDPYTFGGGTKLEIK | 0.06 | no binding | 1.89 | 0.06 | no binding | 0.08 | no binding | 
5 | 19E3 (hybridoma-derived, murine) (antibody, V domains shown) VH: QVQLQQSGAELARPGASVKLSCKASGYTFTSYGISWVKQRTGQGLEWVGEIYPGSGNSYYNEKFKGKATLTADKSSSTAYMELRSLTSEDSAVYFCARSNDGYPDYWGQGTTLTVSS VL: DIQMTQSSSYLSVSLGGRVTITCKASDHINNWLAWYQQKPGNAPRLLISGATSLETGVPSRFSGSGSGKDYTLSITSLQTEDVATYYCQQYWSTPWTFGGGTKLEIK | 0.14 | no binding | 2.61 | 0.13 | no binding | 0.11 | no binding | 
6 | 15G8 (hybridoma-derived, murine) (antibody, V domains shown, also called 15G8 antibody) VH: DVQLQGSGPGLVKPSQSLSLTCSVTGYSITSGYYWNWIRQFPGNKLEWMGYISYDGSNNYNPSLKNRISITRDTSKNQFFLKLNSVTSEDTATYYCAHGYSYYYAMDCWGQGTSVTVSS VL: DIQMTQTTSSLSASLGDRVTISCRTSQDISNYLNWYQQKPDGTVKLLISYTSRLHSGVPSRFSGSGSGTDYSLTISNLEQEDIATYFCQQGNTLPTFGSGTKLEIK | 0.08 | no binding | 1.11 | 0.07 | no binding | 0.14 | no binding | 
7 | chimeric 19E3 (antibody, V domains shown, Chimera of murine 19E3; also called chimeric murine 19E3) VH: QVQLQQSGAELARPGASVKLSCKASGYTFTSYGISWVKQRTGQGLEWVGEIYPGSGNSYYNEKFKGKATLTADKSSSTAYMELRSLTSEDSAVYFCARSNDGYPDYWGQGTTLTVSS VL: DIQMTQSSSYLSVSLGGRVTITCKASDHINNWLAWYQQKPGNAPRLLISGATSLETGVPSRFSGSGSGKDYTLSITSLQTEDVATYYCQQYWSTPWTFGGGTKLEIK |  |  |  |  |  |  |  | IC50 (read off the curve) [16]: ~0.6 µg/mL; EC50 (read off the curve) [17]: ~0.6 µg/mL
8 | chimeric 15G8 antibody (antibody, V domains shown, Chimeric form of murine 15G8) VH: DVQLQGSGPGLVKPSQSLSLTCSVTGYSITSGYYWNWIRQFPGNKLEWMGYISYDGSNNYNPSLKNRISITRDTSKNQFFLKLNSVTSEDTATYYCAHGYSYYYAMDCWGQGTSVTVSS VL: DIQMTQTTSSLSASLGDRVTISCRTSQDISNYLNWYQQKPDGTVKLLISYTSRLHSGVPSRFSGSGSGTDYSLTISNLEQEDIATYFCQQGNTLPTFGSGTKLEIK |  |  |  |  |  |  |  | Relative KD (recombinant ILT2 (human) [7]): 1; Kd (recombinant ILT2 (human) [8]): 12.6 nM; koff (recombinant ILT2 (human) [8]): 0.0102 s⁻¹; kon (recombinant ILT2 (human) [8]): 808000 M⁻¹ s⁻¹; IC50 (read off the curve) [10]: ~0.2 µg/mL

— patent publication US20220048991A1 (BIOND BIOLOGICS, published 2022)
